Test results reported in the supplement of paper PMC10266784.

B1: library; numbered along this chain (parent)
chain: MAAAAAAAAEQQSSNGPVKKSMREKAVERRSVNKEHNSNFKAGYIPIDEDRLHKTGLRGRKGNLAICVIILLFILAVINLIITLVIWAVIRIGPNGCDSMEFHESGLLRFKQVSDMGVIHPLYKSTVGGRRNENLVITGNNQPIVFQQGTTKLSVENNKTSITSDIGMQFFDPRTQNILFSTDYETHEFHLPSGVKSLNVQKASTERITSNATSDLNIKVDGRAIVRGNEGVFIMGKTIEFHMGGNMELKAENSIILNGSVMVSTTRLPSSSSGDQLGSGDWVRYKLCMCADGTLFKVQVTSQNMGCQISDNPCGNTH

Variants of: B1
Experiment: SGCB cell-surface expression functional score (HA stain, bin4 vs bin1, normalised to synonymous) (log10 ratio); higher = more cell-surface SGCB (functional)
Summary of the method: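 Using lentivirus at MOI <0.1, HA-tagged, YFP-fused human beta-sarcoglycan codon-saturation libraries were put into HEK293 cells with stable alpha-, gamma- and delta-sarcoglycan expression, in duplicate transductions. YFP-positive cells were collected by sorting 72 hours later, grown 5–7 days, stained on ice with Alexa Fluor 647 anti-HA, fixed, sorted into four 5% intensity bins and amplicon-sequenced. The functional score takes the median, across codons and transductions, of the log ratio of highest-bin to lowest-bin variant frequency. Within each section, synonymous variants were scaled to mean 0, SD 0.5.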

Variant	SGCB cell-surface expression functional score (log10)
D292A	-0.14
D292W	-2.02
D292V	-0.08
D292S	-0.12
D292N	-0.13
D292G	-0.42
D292I	0.06
D292H	-0.19
D292K	-0.24
D292M	0.17
D292R	-1.29
D292Y	-0.33
D292T	-0.67
D292C	0.07
D292E	0.1
D292L	0.07
D292F	-0.23
D292Q	-1.17
D292P	-0.16
F296S	-0.26
F296K	-1.28
F296M	-0.13
F296V	-0.33
F296W	0.16

Variant	SGCB cell-surface expression functional score (log10)
F296D	-0.42
F296H	-0.39
F296Q	-0.65
F296A	-0.24
F296E	-1.06
F296L	-0.05
F296R	-0.46
F296N	-0.63
F296C	-0.18
F296Y	0.25
F296G	-0.62
F296I	0.21
F296P	-0.5
F296T	-0.42
V298L	-0.21
V298G	-0.37
V298I	0.1
V298W	0.29
V298S	-0.15
V298N	-0.06
V298D	-0.58
V298E	0.17
V298P	-0.53
V298M	0.21

Variant	SGCB cell-surface expression functional score (log10)
V298F	-1.04
V298K	0.19
V298H	-0.85
V298R	-0.21
V298A	-0.24
V298C	0.01
V298T	-0.74
V298Q	-1.06
V298Y	-1.36
L287R	-1.38
L287E	-0.2
L287V	-0.04
L287S	-1.02
L287D	-0.88
L287P	0.16
L287M	-2.09
L287K	-0.59
L287C	0.06
L287W	-1.34
L287N	-2.02
L287I	0.07
L287T	-0.72
L287Y	-0.22
L287F	-0.14

Variant	SGCB cell-surface expression functional score (log10)
L287H	-0.31
L287Q	-1.3
L287A	-0.96
L287G	-0.84
L295I	0.11
L295Q	-0.13
L295M	-0.78
L295R	-0.52
L295W	-1.84
L295E	-0.95
L295V	-0.12
L295N	-1.17
L295P	-0.13
L295K	-0.07
L295A	-0.91
L295S	-0.42
L295C	-0.2
L295T	0.03
L295H	-0.62
L295Y	-0.02
L295D	-1.13
L295F	-0.18
L295G	-0.87
C290L	-0.51

Variant	SGCB cell-surface expression functional score (log10)
C290N	-0.11
C290I	0.02
C290A	-0.08
C290E	0.01
C290G	-0.08
C290W	0.07
C290D	0.2
C290H	-0.47
C290K	-0.15
C290V	-0.97
C290Y	-0.57
C290T	-0.17
C290P	-1.32
C290M	-0.16
C290S	-0.53
C290R	-0.56
C290Q	-0.2
C290F	-0.75
A291H	-0.89
A291P	0.02
A291V	-0.85
A291I	-0.64
A291L	-0.71
A291E	-0.98

Variant	SGCB cell-surface expression functional score (log10)
A291W	-1.18
A291G	-0.19
A291M	-2.2
A291K	-0.46
A291F	0.25
A291R	0.01
A291S	-0.06
A291N	0.17
A291Y	0.25
A291C	-0.42
A291T	0.17
A291D	-0.71
A291Q	-0.72
K286D	-1.17
K286Y	-0.08
K286S	-1.02
K286M	0.29
K286F	-0.07
K286A	-0.54
K286E	-0.77
K286H	-1.12
K286W	-0.09
K286N	-0.03
K286L	-0.42

Variant	SGCB cell-surface expression functional score (log10)
K286T	-1.08
K286R	-1
K286Q	-0.61
K286V	0.03
K286P	0.02
K286C	-1.06
K286G	-0.81
K286I	-0.67
C288H	-1
C288A	-0.03
C288V	-0.72
C288G	-0.27
C288D	0.01
C288Q	-0.16
C288E	0.01
C288I	-0.55
C288M	-1.54
C288W	-0.68
C288L	-0.83
C288R	-0.93
C288P	-0.81
C288T	-0.27
C288N	-0.51
C288Y	-0.01

Variant	SGCB cell-surface expression functional score (log10)
C288K	-1.15
C288S	-0.07
C288F	-0.71
M289Y	0.01
M289F	-1.2
M289G	-1.37
M289L	-0.19
M289P	-1.06
M289A	-1
M289N	0.11
M289V	-0.24
M289C	-0.54
M289K	-0.23
M289W	-1.6
M289R	-0.22
M289H	-0.85
M289Q	-1.35
M289I	0.1
M289E	0.05
M289D	-0.92
M289S	-0.79
M289T	-0.81
G293F	-0.08
G293I	-0.08

Variant	SGCB cell-surface expression functional score (log10)
G293L	-0.36
G293N	0.21
G293D	0.2
G293V	-0.73
G293W	-0.35
G293K	-0.71
G293T	0.13
G293Y	-0.17
G293C	0.03
G293S	-0.48
G293P	-0.23
G293H	0.14
G293M	-0.11
G293R	-0.02
G293A	-0.12
G293Q	0.3
G293E	0.05
R284D	-1.55
R284F	-0.51
R284P	-0.73
R284E	-1.26
R284L	-0.57
R284V	-1.16
R284T	-0.97

Variant	SGCB cell-surface expression functional score (log10)
R284C	0.03
R284G	-0.11
R284N	-2.05
R284I	-0.39
R284A	0.33
R284Y	0.27
R284S	-0.16
R284K	-0.73
R284M	0.28
R284H	0.16
R284W	0.31
R284Q	0.05
Q299P	-0.01
Q299F	-0.05
Q299D	0.16
Q299H	-0.17
Q299G	-0.02
Q299T	0.05
Q299I	0.37
Q299L	-0.23
Q299N	0.04
Q299R	0
Q299M	-0.25
Q299W	0.13

Variant	SGCB cell-surface expression functional score (log10)
Q299C	-1.36
Q299A	0.08
Q299Y	-0.66
Q299V	0.01
Q299E	0.61
Q299K	0.21
Q299S	0.08
K297M	0.17
K297G	-0.21
K297T	-0.16
K297P	0.02
K297V	-0.02
K297Y	-0.13
K297E	0.15
K297R	0.25
K297N	0.46
K297I	-0.54
K297L	-0.43
K297S	-0.17
K297F	-0.47
K297C	-0.07
K297A	-0.41
K297Q	-0.3
K297W	-1.48

Variant	SGCB cell-surface expression functional score (log10)
K297H	-0.02
K297D	0.03
T294F	0.01
T294N	0.12
T294A	0.08
T294V	0.14
T294G	0.5
T294K	-0.03
T294L	0.29
T294C	-0.97
T294W	0.57
T294P	0.04
T294I	-0.04
T294E	-0.33
T294Q	0.06
T294R	-0.13
T294Y	-0.33
T294D	0.14
T294H	-0.74
T294M	0.19
T294S	0.17
V283C	0.36
V283R	-0.21
V283I	0.38

Variant	SGCB cell-surface expression functional score (log10)
V283S	-0.34
V283L	0.37
V283F	-0.17
V283Y	-0.55
V283K	0.04
V283M	0.74
V283D	-0.63
V283A	-0.15
V283P	-0.19
V283W	-1.26
V283Q	-0.56
V283N	0.35
V283T	-0.38
V283H	-0.24
V283G	0.12
V283E	0.19
W282V	0.04
W282Q	0.08
W282S	-0.06
W282Y	-0.08
W282T	-0.1
W282R	0.12
V300C	-0.27
V300A	-0.02

Variant	SGCB cell-surface expression functional score (log10)
V300F	-0.2
V300E	-0.69
V300D	-0.2
Y285M	-2.09
Y285H	-0.04
Y285G	-0.29
Y285P	-0.24
Y285I	-1.22
Y285L	-0.66
Y285E	-2.12
Y285V	-0.66
Y285T	-1.86
Y285D	-0.09
Y285K	-0.76
Y285A	-0.68
Y285S	-0.49
Y285R	-1.05
Y285Q	-0.54
Y285C	-0.68
Y285W	0.09
Y285F	-0.2
Y285N	-0.74
